No end group written: not given here. *: point of attachment. Fmoc = O=C(OCC1c2ccccc2-c2ccccc21)*
Target: T1, GMP-140 (Homo sapiens, UniProt P16109)
T1 construct: from tissue; host or cells: human platelets (outdated platelet packs from a blood bank)
T1 sequence (P16109 42-830): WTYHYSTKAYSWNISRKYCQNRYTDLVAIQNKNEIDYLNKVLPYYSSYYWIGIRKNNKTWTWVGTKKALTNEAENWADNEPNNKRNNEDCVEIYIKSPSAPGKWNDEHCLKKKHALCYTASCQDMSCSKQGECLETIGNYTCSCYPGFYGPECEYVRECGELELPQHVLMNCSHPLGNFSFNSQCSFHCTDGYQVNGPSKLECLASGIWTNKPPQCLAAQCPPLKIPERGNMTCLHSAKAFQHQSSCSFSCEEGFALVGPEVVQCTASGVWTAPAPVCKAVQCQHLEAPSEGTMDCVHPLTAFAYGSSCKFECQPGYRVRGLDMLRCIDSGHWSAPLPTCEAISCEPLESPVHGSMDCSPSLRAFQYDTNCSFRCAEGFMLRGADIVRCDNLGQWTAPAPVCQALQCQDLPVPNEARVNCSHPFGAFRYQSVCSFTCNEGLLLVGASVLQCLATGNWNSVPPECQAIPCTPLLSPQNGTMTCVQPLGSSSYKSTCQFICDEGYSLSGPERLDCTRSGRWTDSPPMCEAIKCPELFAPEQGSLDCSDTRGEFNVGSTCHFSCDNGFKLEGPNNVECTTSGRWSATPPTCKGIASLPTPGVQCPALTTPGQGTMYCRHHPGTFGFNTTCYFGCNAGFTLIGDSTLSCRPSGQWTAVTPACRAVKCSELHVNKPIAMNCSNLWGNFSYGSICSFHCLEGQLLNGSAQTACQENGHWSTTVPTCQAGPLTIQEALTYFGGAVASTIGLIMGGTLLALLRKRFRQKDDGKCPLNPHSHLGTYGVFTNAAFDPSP
Assay: Inhibition of neutrophil binding to GMP-140 coated wells
Assay type: cell-based
Conditions: human neutrophils, immobilized GMP-140; for inhibition at 100 µM / inhibition at 500 µM / inhibition at 1000 µM: read-out: Percent inhibition of neutrophil binding to GMP-140
Source text: Peptides can be screened for their ability to inhibit adhesion to cells, for example, neutrophil adhesion to purified GMP-140 immobilized on plastic wells, using the assay described by Geng, et al., Nature 343, 757-760 (1990).
Human neutrophils are isolated from heparinized whole blood by density gradient centrifugation on Mono-Poly resolving media, Flow laboratories. Neutrophil suspensions are greater than 98% pure and greater than 95% viable by trypan blue exclusion. For adhesion assays, neutrophils are suspended at a concentration of 2×10^6 cells/mL in Hanks' balanced salt solution containing 1.26 mM Ca^2+ and 0.81 mM Mg^2+ (HBSS, Gibco) with 5 mg/mL human serum albumin (HBSS/HSA). Adhesion assays are conducted in triplicate in 96-well microtiter plates, Corning, incubated at 4° C. overnight with 50 microliters of various protein solutions.
GMP-140 is isolated from human platelet lysates by immunoaffinity chromatography on antibody S12-Sepharose™ and ion-exchange chromatography on a Mono-Q™ column (FLPC, Pharmacia Fine Chemicals, as follows.
GMP-140 is plated at 5 micrograms/mL and the control proteins: human serum albumin (Alb), platelet glycoprotein Iib/IIIha (Iib), von Willebrand factor (vWF), fibrinogen (FIB), thrombomodulin™, gelatin (GEL) or human serum (HS), are added at 50 micrograms/mL. All wells are blocked for 2 h at 22° C. with 300 microliters HBSS containing 10 mg/mL HSA, then ashed three times with HBSS containing 0.1% Tween-20 and once with HBSS. Cells (2×10^5 per well are added to the wells and incubated at 22° C. for 20 min. The wells are then filled with HGSS/HSA, sealed with acetate tape (Dynatech), and centrifuged inverted at 150 g for 5 min. After discarding nonadherent cells and supemates, the contents of each well are solubilized with 200 microliters of 0.5% hexadecyltrimethylammonium bromide, Sigma, in 50 mM potassium phosphate, pH 6.0, and assayed for myeloperoxidase activity, Ley, et al., Blood 73, 1324-1330 (1989). The number of cells bound is derived from a standard curve of myeloperoxidase activity versus numbers of cells. Under all assay conditions, the cells release less than 5% of total myeloperoxidase and lactate dehydrogenase. Inhibition is read as a lower percent adhesion, so that a value of 5% means that 95% of the specific adhesion was inhibited.
Binding of various peptides to GMP-140 coated wells, as described above, were compared.
Binding of the peptides at various concentrations, ranging from 0.05 to 1 mM were compared.
A 5 μg/mL solution of GMP-140 in HBSS (buffer) is prepared. 50 μL is pipetted per well with the exception of three wells (A10 to A12) and the plate is stored overnight at 0° C. to 4° C. The liquids are removed by aspiration and 300 μL of 5 mg/mL human serum albumin (HSA)/HBSS is placed in the wells coated with GMP-140 plus the three non-coated wells to be used as control wells. The plate is allowed to incubate at room temperature for two hours. The HSA/HBSS solution is removed and the wells washed three times with 300 μL/well of HBSS. The third 300 μL wash of HBSS is left in each well and the plate is kept at room temperature until it is used.
Eight to ten mL of fresh human blood collected in heparinized tubes is carefully layered over 5 mL of the Mono-Poly Resolving Medium in 15 mL polypropylene centrifuge tubes. The tubes are centrifuged for 30 minutes at room temperature and 1400 to 1600 rpm. The tubes are rotated 180° and centrifuged for another 30 minutes under the same conditions. The top plasma layer and first cellular layer of leukocytes are drawn off. The second cellular layer of neutrophils is harvested (usually 2 to 3 mL per tube) and is placed in a clean 15 mL centrifuge tube. This is then underlayered with 1.5 mL of fresh resolving medium and spun at 2000 rpm for 15 minutes at room temperature. This is done to further purify the neutrophils from residual red blood cells. […]

Row | inhibition at 100 µM (peptide concentration 0.1 mM) [%] | inhibition at 500 µM (peptide concentration 0.5 mM) [%] | inhibition at 1000 µM (peptide concentration 1.0 mM) [%] | Percent inhibition of neutrophil binding to GMP-140 (peptide concentration 0.1 mM) [%] | Percent inhibition of neutrophil binding to GMP-140 (peptide concentration 1.0 mM) [%] | Percent inhibition of neutrophil binding to GMP-140 (peptide concentration 0.5 mM) [%] | Substance
1 | 46 | 99 | 99 | – | – | – | RKNNGTWTWV-NH2 [RKNNGTWTWV-NH2, Arginyl-lysyl-asparaginyl-asparaginyl-glycyl-threonyl-tryptophyl-threonyl-tryptophyl-valine-amide]
2 | – | – | – | 14 | 35 | – | RKNNKTWTWV (Synthetic inhibitory peptide) [Arginyl-lysyl-asparaginyl-asparaginyl-lysyl-threonyl-tryptophyl-hreonyl-tryptophyl-valine]
3 | – | – | – | 34 | 96 | 94 | Arg-Glu-Asn-Asn-Lys-Thr-Trp-Thr-Trp-Val-NH2 (RENNKTWTWV-NH2)
4 | – | – | – | 26 | 34 | 23 | RKNNKTWT-NH2
5 | 9 | – | 47 | – | – | – | RKNNKTWTWVGTKKALTNEC-NH2 [Arginyl-lysyl-asparaginyl-asparaginyl-lysyl-threonyl-tryptophyl-threonyl-tryptophyl-valyl-glycyl-threonyl-lysyl-lysyl-alanyl-leucyl-threonyl-asparaginyl-glutamyl-cysteine-amide]
6 | – | – | – | 31 | 99 | 53 | Arg-Lys-Asn-Asn-Lys-Thr-Trp-NH2 (RKNNKTW-NH2)
7 | – | – | – | 87 | 105 | – | Cys-Arg-Lys-Asn-Asn-Lys-Thr-Trp-Thr-Trp-Val-NH2 (CRKNNKTWTWV-NH2)
8 | – | – | – | – | 17 | – | Arg-Lys-Val-Asn-Asn-Val-Trp-NH2 (RKVNNVW-NH2)
9 | 13 | 20 | – | 14 | – | 30 | RKNNKTWTWV-NH2 [RKNNKTWTWV-NH2, Arginyl-lysyl-asparaginyl-asparaginyl-lysyl-threonyl-tryptophyl-threonyl-tryptophyl-valine-amide]
10 | 94 | 102 | – | – | – | – | RKVNNVWVWV-NH2 [RKVNNVWVWV-NH2, Arginyl-lysyl-valyl-asparaginyl-asparaginyl-valyl-tryptophyl-valyl-tryptophyl-valine-amide]
11 | – | – | – | 85 | 99 | 100 | FMOC-Asn-Asn-Lys-Thr-Trp-NH2 (Fmoc-NNKTW-NH2; SMILES C[C@@H](O)[C@H](NC(=O)[C@H](CCCCN)NC(=O)[C@H](CC(N)=O)NC(=O)[C@H](CC(N)=O)NC(=O)OCC1c2ccccc2-c2ccccc21)C(=O)N[C@@H](Cc1c[nH]c2ccccc12)C(N)=O)
12 | 82 | 98 | – | – | – | – | RKVNNVWVWV [RKVNNVWVWV, Arginyl-lysyl-valyl-asparaginyl-asparaginyl-valyl-tryptophyl-valyl-tryptophyl-valine]
13 | – | – | – | 9 | 104 | 98 | Tyr-Lys-Asn-Asn-Lys-Thr-Trp-Thr-Trp-Val-NH2 (YKNNKTWTWV-NH2)

Source: US6528487B1, “Peptide inhibitors of inflammation mediated by selectins” (Centocor, Inc., priority 1991, dated 2003)
